For the test, the target named is Spz, activated cystine-knot domain (Drosophila melanogaster). Briefly: non-reducing SDS-PAGE and immunoblot; proSpz cleaved by the activated proteases, in the absence of DTT (fig. S10); anti-Spz C106 antibody. (In general: Immunoblotting shows a protein as a band on a membrane.)

The stoichiometry N is the number of molecules, sites or subunits per partner or assembly. Turning to “Spz, activated cystine-knot domain (domain or fragment)”, the stoichiometry N was determined as 2.
